Reference: paper doi:10.1101/2023.06.10.544460 (bioRxiv, 2023)
Values joined by “and” are separate entries in the source; they are usually repeats but may differ in a detail not shown here. Equal entries are not always repeated.

Molecular target: the molecule itself
Assay: cryo-EM structure

B1: HMPV nucleoprotein N, full length, strain NL1-00 (A1), RNA-bound oligomers (N-RNA) (natural protein, UniProt Q91F57 1-394, looked up)
chain: MSLQGIHLSDLSYKHAILKESQYTIKRDVGTTTAVTPSSLQQEITLLCGEILYAKHADYKYAAEIGIQYISTALGSERVQQILRNSGSEVQVVLTRTYSLGKIKNNKGEDLQMLDIHGVEKSWVEEIDKEARKTMATLLKESSGNIPQNQRPSAPDTPIILLCVGALIFTKLASTIEVGLETTVRRANRVLSDALKRYPRMDIPKIARSFYDLFEQKVYHRSLFIEYGKALGSSSTGSKAESLFVNIFMQAYGAGQTMLRWGVIARSSNNIMLGHVSVQAELKQVTEVYDLVREMGPESGLLHLRQSPKAGLLSLANCPNFASVVLGNASGLGIIGMYRGRVPNTELFSAAESYAKSLKESNKINFSSLGLTDEEKEAAEHFLNVSDDSQNDYE
In the case of B1, the “stoichiometry N” value is reported as 10 protomers and 11 protomers and 12 protomers and ≥ 12 protomers.
